Measurements published in patent US20220184120A1 (MINERVA BIOTECHNOLOGIES, published 2022).
Positions count from the first letter of the chain named.

T1: N-10 peptide (PSMGFR minus 10 amino acids from the N-terminus)
T1 construct: also called N-10 PSMGFR; PSMGFR N-10
T1 peptide: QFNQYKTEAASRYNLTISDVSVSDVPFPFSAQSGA

T2: N+9/C-9 peptide (9 amino acids added onto the N-terminus and 9 deleted from the C-terminus of PSMGFR)
T2 peptide: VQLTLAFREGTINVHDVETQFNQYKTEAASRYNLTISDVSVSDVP

T3: PSMGFR peptide (Primary Sequence of the MUC1 Growth Factor Receptor)
T3 construct: synthetic peptide immobilised on ELISA plates; also called MUC1* peptide; MUC1* extra cellular domain peptide
T3 peptide: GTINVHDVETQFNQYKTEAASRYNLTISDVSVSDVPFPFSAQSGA

T4: NME7-AB (recombinant) (Homo sapiens (Human), UniProt Q9Y5B8 92-376)
T4 construct: the entry ends in a His tag; also called NM23-H7
T4 sequence: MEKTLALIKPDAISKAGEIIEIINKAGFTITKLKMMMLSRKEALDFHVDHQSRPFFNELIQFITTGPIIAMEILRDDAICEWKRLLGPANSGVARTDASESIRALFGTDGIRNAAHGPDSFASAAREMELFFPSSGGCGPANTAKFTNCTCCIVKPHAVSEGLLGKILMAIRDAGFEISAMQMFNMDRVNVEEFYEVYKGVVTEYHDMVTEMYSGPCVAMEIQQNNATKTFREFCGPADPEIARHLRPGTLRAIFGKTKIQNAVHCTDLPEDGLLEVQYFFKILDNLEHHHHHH

T5: MUC1 transmembrane cleavage product after cleavage of full-length MUC1 by MMP9 (UniProt P15941 1110-1255)
T5 construct: on HCT-MUC1-18 (or T47D) cells treated with MMP9; also called MUC1* generated by cleavage by MMP9; MMP9 cleaved form of MUC1
T5 sequence (looked up): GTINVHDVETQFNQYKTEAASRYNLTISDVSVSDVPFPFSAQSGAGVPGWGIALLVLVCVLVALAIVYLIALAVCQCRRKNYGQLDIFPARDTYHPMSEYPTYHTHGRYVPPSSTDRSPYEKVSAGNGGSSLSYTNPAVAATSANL

T6: MUC1* (cleaved MUC1) as it occurs on MUC1/MUC1* positive cancer cell lines (human, UniProt P15941 1110-1255, limits assumed)
T6 construct: the cell line is named under assay; also called MUC1* positive cancer cells; ZR-75-1 aka 1500
T6 sequence (looked up): T5 sequence (looked up)

T7: N+20/C-27 peptide (20 amino acids added onto the N-terminus and 27 deleted from the C-terminus of PSMGFR)
T7 peptide: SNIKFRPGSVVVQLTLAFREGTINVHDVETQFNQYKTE

T8: N-30 peptide
T8 peptide: SVSDVPFPFSAQSGA

T9: N-10/C-5 peptide
T9 peptide: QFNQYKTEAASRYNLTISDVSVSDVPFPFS

T10: N-26 peptide
T10 peptide: ISDVSVSDVPFPFSAQSGA

T11: N-19 peptide
T11 peptide: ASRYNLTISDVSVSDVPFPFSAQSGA

T12: N-19/C-5 peptide
T12 peptide: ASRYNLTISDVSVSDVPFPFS

B1: 3C5 mouse monoclonal antibody (antibody, V domains shown)
VH: QIQLVQSGPELKKPGETVKISCKASGYTFTNYGMNWVKQAPGKGLKWMGWINTYTGKPTYADDFKGRFAFSLETSASTAYLQINNLKNEDTATYFCARGGLDGYYGYWGQGTTLTVSS
VL: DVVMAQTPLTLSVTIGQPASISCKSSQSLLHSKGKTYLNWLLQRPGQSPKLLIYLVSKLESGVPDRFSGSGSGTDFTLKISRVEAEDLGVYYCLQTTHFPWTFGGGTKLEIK
notes: raised against N+9/C-9; also called N+9/C-9 antibody 3C5
B2: humanized MN-C2 scFv (scFv)
scFv: EVQLVESGGGLVKPGGSLRLSCAASGFTFSGYAMSWVRQAPGKGLEWVSTISSGGTYIYYPDSVKGRFTISRDNAKNSLYLQMNSLRAEDTAVYYCARLGGDNYYEYFDVWGKGTTVTVSSGGGGSGGGGSGGGGSDIVLTQSPASLAVSPGQRATITCRASKSVSTSGYSYMHWYQQKPGQPPKLLIYLASNLESGVPARFSGSGSGTDFTLTINPVEANDTANYYCQHSRELPFTFGGGTKVEIKRT
notes: also called huMN-C2scFv; huMNC2scFv; not shown: 6xHis tag detected with Anti-Penta-His antibody
B3: C-10 peptide (PSMGFR minus 10 amino acids from the C-terminus) (peptide)
peptide: GTINVHDVETQFNQYKTEAASRYNLTISDVSVSDV
notes: also called C-10 PSMGFR; PSMGFR C-10
B4: 45C11 mouse monoclonal antibody (antibody, V domains shown)
VH: EVQLQQSGADLVKPGASVKLSCTASGFNIKDTFMHWVKQRPEQGLEWIGRIDPANGNTKYDPKFQGKATITADTSSNTAYLQLSSLTSEDTAVYYCAKPYGNYGYYYALDYWGQGTSVTVSS
VL: DVQITQSPSYLAASPGETITINCRASKSISKYLAWYQEKPGKTNKLLIYSGSTLQSGIPSRFSGSGSGTDFTLTISSLEPEDFAMYYCQQHNEFPWTFGGGTKLEIK
notes: raised against N+20/C-27; also called N+20/C-27 antibody 45C11
B5: 1E4 mouse monoclonal antibody (antibody, V domains shown)
VH: QVQLQQSGAELVRPGSSVKISCKASGYAFSTYWMNWVKQRPGQGLEWIGQIYPGDSDTNYNGKFKGKATLTADKSSNTAYMQLSSLTSEDSAVFFCARGNHASMDYWGQGTSVTVSS
VL: DVVMTQTPLSLPVSLGDQASISCRSSQSLVHSNGNTYLHWYLQKPGQSPKLLIYKVSNRFSGVPDRFSGSGSGTDFTLKISRVEAEDLGVYFCSQKTHVPWTFGGGTKLEIK
notes: raised against N+20/C-27; also called MN-1E4; N+20/C-27 antibody 1E4
B6: 8A9 mouse monoclonal antibody (antibody, V domains shown)
VH: EVELVESGGGLVQPGGSLRLSCATSGFTFTDHYMSWVRQPPGKALEWLGFIRNKANGYTTEYSASVKGRFTISRDNSQSILYLQMKTLRTEDSATYYCARPSDWDSWFAYWGQGTLVTVSA
VL: B5 VL with V3L, L29I, H39D, K55R, V90L, F92Y, S94F, K96G, T97S, T102A
notes: raised against N+9/C-9; also called N+9/C-9 antibody 8A9
B7: 39H5 mouse monoclonal antibody (antibody, V domains shown)
VH: QIQLVQSGPELKKPGETVKISCKASGYTFTNYGMNWVKQAPGKGLKWMGWINTYTGEPTYVGDFKGRFAFSLETSASTAYLQINNLKNEDTATYFCVRGIHGYVDYWGQGTTLTVSS
VL: B5 VL with V3L, L29I, S32R, H39E, F92Y, S94F, K96G, T97S, V99L
notes: raised against N+9/C-9; also called N+9/C-9 antibody 39H5

Columns and labels:
[1] = molecular target: T1, N-10 peptide (PSMGFR minus 10 amino …); test: ELISA
[2] = molecular target: T2, N+9/C-9 peptide (9 amino acids added …); test: ELISA (FIG. 66A)
[3] = molecular target: B3; test: ELISA (recap in IHC legend)
[4] = molecular target: T3, PSMGFR peptide (Primary Sequence of the …); test: ELISA, PSMGFR peptide on plate (FIG. 5)
Method: Humanized MN-C2 scFv is then incubated with the surface, washed and detected according to standard methods.

NME7-AB (recombinant) = molecular target: T4, NME7-AB (recombinant); test: ELISA (FIG. 2A)
Method: (§1) FIGS. 2A-2I show results of ELISA assays. MUC1* peptides PSMGFR, PSMGFR minus 10 amino acids from the N-terminus aka N−10, or PSMGFR minus 10 amino acids from the C-terminus, aka C−10 are immobilized on the plate and the following are assayed for binding: NME7-AB (FIG. 2A), MN-C2 monoclonal antibody (FIG. 2B), MN-E6 monoclonal antibody (FIG. 2C), or dimeric NME1 (FIG. 2D). […] MUC1* peptides PSMGFR minus 10 amino acids from the N-terminus aka N−10, or PSMGFR minus 10 amino acids from the C-terminus, aka C−10, are immobilized on the plate and the following are assayed for binding: MN-C3 (FIG. 2E) and MN-C8 (FIG. 2F).

dimeric NME1 = molecular target: T13, dimeric NME1 (human, UniProt P15531 1-152, limits assumed); test: ELISA (FIG. 2D)
T13 construct: also called NM23-H1 dimers; dimeric NM23-H1
Method: as §1

[5] = molecular target: T5, MUC1 transmembrane cleavage product …; test: flow cytometry, HCT-MUC1-18 cells + enzyme (FIG. 75K)
Method: (§2) Antibodies generated by immunization with PSMGFR, N+20/C−27, or N+9/C−9 were tested for their ability to recognize MUC1 after it is cleaved by MMP9. […] To HCT-MUC1-18 cells was added either a catalytically active MMP9 or MMP2. The enzymes, added over a range of concentrations, were incubated with the cells for 24 hours. The resultant cells were then incubated with the various antibodies and analyzed by FACS to determine which bound to a MUC1 cleavage product produced by cleavage by MMP9 (FIG. 75A-75N). […] Each bar graph is labeled with both the name of the antibody used in that assay and its cognate epitope. The order of the graphs from right to left corresponds to the distance from the cell surface of the antibody's cognate epitope. […] For the greatest degree of cancer specificity, the antibody should recognize a conformational epitope of a MUC1 cleavage product created when MUC1 is cleaved by MMP9.

[6] = molecular target: T3, PSMGFR peptide (Primary Sequence of the …); test: ELISA (FIG. 65A)
Text: (§3) The antibodies being tested were derived from animals immunized with the N+20/C−27 peptide. The first selection criteria was to confirm that the antibodies bound to the immunizing N+20/C−27 peptide. […] Although these antibodies were raised against the N+20/C−27 peptide, all but one, 45C11, still bind to the PSMGFR peptide. […] 1E4 was able to bind to the N+20/C−27 peptide, the PSMGFR and the N−10 peptide, consistent with the idea that its epitope must lie within the […] sequence. […] The color of the bars for each antibody in the ELISA graph are color coded to match the deductive cognate sequence, or a portion thereof, of that antibody.
(§4) This same ELISA assay was performed on the antibodies of the invention (FIG. 64-66 and FIG. 201). Note that only 20A10 exactly matches the binding profile of MNC2 and MNE6. 25E6, 28F9 and 18G12 are all able to bind to the N−10 peptide. 18B4 is the only antibody raised against the PSMGFR peptide that requires the 10 most N-terminal amino acids of the peptide. The color of the bars for each antibody in the ELISA graph are color coded to match the deductive cognate sequence, or a portion thereof, of that antibody. In addition, another set of antibodies was assayed by ELISA (FIG. 201). Of this set, B12, B2, B7, B9, 8C7F3, and H11 bound to the PSMGFR peptide, bound to the N−10 peptide, but not to the C−10 peptide (FIG. 201).

[7] = molecular target: T6, MUC1* (cleaved MUC1) as it occurs on …; test: flow cytometry, panel of cancer cell lines (FIGS. 80-87)
[8] = molecular target: T3, PSMGFR peptide (Primary Sequence of the …); test: ELISA (FIG. 65)
[9] = molecular target: B3; test: ELISA
[10] = molecular target: T7, N+20/C-27 peptide (20 amino acids added …); test: ELISA (FIG. 65A)
Text: as §3, §4

[11] = molecular target: T5, MUC1 transmembrane cleavage product …; test: flow cytometry, HCT-MUC1-18 cells + enzyme (FIG. 75L)
Method: as §2

[12] = molecular target: T2, N+9/C-9 peptide (9 amino acids added …); test: ELISA (FIG. 66)
N-30 peptide = molecular target: T8, N-30 peptide; test: ELISA (FIG. 69)
Method: (§5) In order to further refine the epitopes to which each antibody binds, a series of smaller peptides derived from the PSMGFR sequence were synthesized: N−30 (SEQ ID NO:7), N−26 (SEQ ID NO:6), N−19 (SEQ ID NO:4), N−10/C−5 (SEQ ID NO:8), N−19/C−5 (SEQ ID NO:9). Each of the antibodies was tested in an ELISA assay for their ability to bind to this refined set of peptides, plus PSMGFR, N−10 and C−10 peptides (FIG. 67-69).

[13] = molecular target: T3, PSMGFR peptide (Primary Sequence of the …); test: ELISA (FIG. 69)
Method: as §5

N-10/C-5 peptide = molecular target: T9, N-10/C-5 peptide; test: ELISA (FIG. 69)
Method: as §5

N-26 peptide = molecular target: T10, N-26 peptide; test: ELISA (FIG. 69)
Method: as §5

N-19 peptide = molecular target: T11, N-19 peptide; test: ELISA (FIG. 69)
Method: as §5

N-19/C-5 peptide = molecular target: T12, N-19/C-5 peptide; test: ELISA (FIG. 69)
Method: as §5

[14] = molecular target: B3; test: ELISA (FIG. 69)
Method: as §5

[15] = molecular target: T1, N-10 peptide (PSMGFR minus 10 amino …); test: ELISA (FIG. 69)
Method: as §5

[16] = molecular target: T2, N+9/C-9 peptide (9 amino acids added …); test: ELISA

T13 sequence (P15531 whole entry): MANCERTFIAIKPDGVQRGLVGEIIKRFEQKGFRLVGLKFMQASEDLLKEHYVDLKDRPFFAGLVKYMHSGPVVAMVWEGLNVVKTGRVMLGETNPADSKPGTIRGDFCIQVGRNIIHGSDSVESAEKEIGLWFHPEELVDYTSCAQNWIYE

Binder: B1
binding result [1]: no binding | binding result [2]: binds

Binder: B2
binding result [3]: no binding | EC50 [4]: ~333 nM

Binder: B3
binding result (NME7-AB (recombinant)): no binding | binding result (dimeric NME1): no binding

Binder: B4
binding result [5]: no binding | binding result [1]: no binding | binding result [6]: no binding | binding result [7]: no binding

Binder: B5
binding result [8]: binds | binding result [9]: binds | binding result [1]: binds | binding result [10]: binds

Binder: B6
binding result [11]: no binding | binding result [12]: binds | binding result (N-30 peptide): no binding | binding result [13]: no binding | binding result (N-10/C-5 peptide): no binding | binding result (N-26 peptide): no binding | binding result (N-19 peptide): no binding | binding result (N-19/C-5 peptide): no binding | binding result [14]: no binding | binding result [15]: no binding | binding result [7]: no binding

Binder: B7
binding result (N-30 peptide): no binding | binding result (N-10/C-5 peptide): no binding | binding result (N-26 peptide): no binding | binding result (N-19 peptide): no binding | binding result (N-19/C-5 peptide): no binding | binding result [14]: no binding | binding result [16]: binds
